Measured values reported in US20260049144A1 (Johns Hopkins, published 2026).

How the values were obtained:
[1] = target: T1, PD-L1 extracellular domain (ECD) (UniProt Q9NZQ7 19-238, limits assumed); experiment: yeast-displayed clone, soluble PD-L1 titration, flow cytometry
T1 construct: extracellular domain; Soluble PD-L1 used in the yeast-display titrations and in BLI; Tags or biotinylation are not described; also called Programmed death-ligand 1; CD274

[2] = target: T1, PD-L1 extracellular domain (ECD); experiment: BLI competition: B8 VNAR immobilized on the tip, 100 nM PD-L1, soluble B8 VNAR titrated as competitor
[3] = target: T1, PD-L1 extracellular domain (ECD); experiment: BLI, equilibrium binding, soluble fragment on immobilized PD-L1
PD-L1 on cells [4] = target: PD-L1 on cells (UniProt Q9NZQ7); experiment: cell-based or functional assay
PD-L1 on cells [5] = target: PD-L1 on cells (UniProt Q9NZQ7); experiment: equilibrium binding to cells (method 'Cell'; cell line not stated)

Sequence of PD-L1 on cells (Q9NZQ7 19-290 limits assumed): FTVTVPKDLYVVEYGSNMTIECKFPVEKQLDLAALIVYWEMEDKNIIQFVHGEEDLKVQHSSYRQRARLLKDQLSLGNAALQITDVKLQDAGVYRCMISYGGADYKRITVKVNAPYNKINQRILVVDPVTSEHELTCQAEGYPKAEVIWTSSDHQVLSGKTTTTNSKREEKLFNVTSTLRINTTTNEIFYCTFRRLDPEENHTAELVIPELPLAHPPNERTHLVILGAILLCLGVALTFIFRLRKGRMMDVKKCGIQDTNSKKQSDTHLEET
T1 sequence (Q9NZQ7 19-238 limits assumed): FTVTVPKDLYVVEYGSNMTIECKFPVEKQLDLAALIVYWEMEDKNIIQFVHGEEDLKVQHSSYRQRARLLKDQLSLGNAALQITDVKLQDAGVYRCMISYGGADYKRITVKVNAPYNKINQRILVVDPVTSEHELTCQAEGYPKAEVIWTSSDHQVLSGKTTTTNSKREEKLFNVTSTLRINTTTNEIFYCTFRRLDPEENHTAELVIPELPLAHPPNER

| Binder | Kd [1] [nM] | Kd [3] [nM] | other results |
| --- | --- | --- | --- |
| B11 VNAR (VNAR) VNAR: ARVDQTPQTITKETGESLTINCVLRDSNCALSSTYWYRKKSGSTNEESISKGGRYVETVNSGSKSFSLRINDLTVEDSGTYRCRLFVSWLSDYDCATYYVSGGGTVVTVN | > 1000 | – | – |
| B8 VNAR (VNAR, VNAR (shark single domain); Measured on yeast and as a soluble fragment (BLI); Not the same as B8 scFv) VNAR: ARVDQTPQTITKETGESLTINCVLRDASYALGSTCWYRKKSGSTNEESISIGGRYVETVNSGSKSFSLRINDLTVEDSGTYRCGVDSWCPPVCSWAYAGCGDGTAVTVN | 97.3 | 33.5 | IC50 (read off the curve) [2]: ~100 nM |
| C7 VNAR (VNAR, Not the same as C7 scFv) VNAR: ARVDQTPQTITKETGESLTINCVVRDSACALVRTFWYRKKSGSTNEESISKGGRYVETVNSGSKSFSLRINDLTVEDSGTYRCKVFGWCRMRDVYGGGTVVTVN | 400 | – | – |
| C4 VNAR (VNAR) VNAR: ARVDQTPLTITKETGESLTINCVLRDSNCALSSTYWYRKSSGSTNEEIISKGGRYVETVNSGSNSFSLRINDLTVEDSGTYRCKVFGWCRMRDVYGGGTVVTVN | > 1000 | – | – |
| A9 VNAR (VNAR, VNAR (shark variable new antigen receptor single domain) from nurse sharks immunised with the PD-L1 ECD; Measured on yeast and as a soluble fragment (BLI)) VNAR: ARVDQTPQTITKETGESLTINCVVRDTACALVRTFWYRKKSGSTNEESISKGGRYVETVNRGSKSFSLRINDLTVEDSGTYRCKVFGWCRMRDVYGGGTVVTVN | 225 | 127 | – |
| TS1521 (VNAR, part only; not given: atezolizumab heavy and light chains, part only) heavy, part: ARVDQTPQTITKETGESLTINCVLRDASYALGSTCWYRKKSGSTNEESISIGGRYVETVNSGSKSFSLRINDLTVEDSGTYRCGVDSWCPPVCSWAYAGCGDGTAVTVNGGGGSGGGGSGGGGS light, part: GGGGSGGGGSARVDQTPQTITKETGESLTINCVVRDTACALVRTFWYRKKSGSTNEESISKGGRYVETVNRGSKSFSLRINDLTVEDSGTYRCKVFGWCRMRDVYGGGTVVTVN | – | – | TCR activation (NFAT-induced luminescence), FC50, antibody continuously present (PD-L1 on cells [4]): 0.51 nM; TCR activation (NFAT-induced luminescence), potency, antibody removed before addition of effector cells (PD-L1 on cells [4]): 0.95 nM; reduction in TCR activation potency, continued presence versus removal of antibody (PD-L1 on cells [4]): 1.9 fold; Kd (PD-L1 on cells [5]): 0.204 nM |
